Laboratory results: article PMC9158284, “N-terminally truncated Aβ4-x proteoforms and their relevance for Alzheimer’s pathophysiology” (Translational Neurodegeneration, 2022)
Entries after “also recorded” stand apart in the source; their conditions may differ.

Legend:
[1] = Electron microscopy after negative staining; assay type: physicochemical; conditions: 24-h incubation/oligomerization
Description: All synthetic homologues were incubated at a concentration of 1 mg/ml in 1,1,1,3,3,3,hexafluoro-isopropanol (HFIP; Sigma Chemical Co., St. Louis, MO) for 4 days, a pretreatment that breaks down β-sheet structures and disrupts hydrophobic forces, leading to monodisperse amyloid subunit preparations [67]. The HFIP-pretreated peptides were lyophilized and subsequently reconstituted to 1 mM in 1% NH4OH followed by further dilution in phosphate-buffered saline (PBS) to a final concentration of 50 µM and immediately used for radioiodination and direct intracerebral injection. […] The resulting oligomers were immediately used for radiolabeling and intracerebral injections.
Peptide oligomerization was also monitored by electron microscopy, as previously described [38, 66, 71]. Five microliters of either monomeric or oligomeric preparations of the different Aβ peptides were placed onto carbon-coated 400 mesh Cu/Rh grids (Ted Pella, Inc., Redding, CA) and stained with 1% uranyl acetate in distilled water (Polysciences, Inc., Warrington, PA). The stained grids were examined in a Philips CM-12 transmission electron microscope and photographed with a Gatan (4 k × 2.7 k) digital camera at the Image Core Facility of the Skirball Institute of Biomedical Medicine, NYU School of Medicine, as described [66, 71, 72].

[2] = Thioflavin T binding assay; assay type: physicochemical; conditions: after 24-h incubation at 37 °C under physiological salt concentrations; 50 mM Tris–HCl pH 8.5; ex 435 / em 490 nm; three independent experiments
Description: Aggregation of the different Aβ homologues was also monitored by Thioflavin T binding, following previously described protocols. Briefly, 6 μl aliquots from each peptide aggregation time point were added to 184 μl of 50 mM Tris–HCl buffer, pH 8.5, and 10 µl of 0.1 mM thioflavin T (Sigma). Fluorescence was recorded for 300 s in an LS-50B spectrometer (Perkin Elmer, Waltham, MA) with a slit width of 10 nm and excitation and emission wavelengths of 435 and 490 nm, respectively.

[3] = after 24-h incubation at 37 °C, 50 μM in 10 mM phosphate buffer pH 7.4, 150 mM NaF; mean of 15 scans
Description: Changes in the secondary structure of the different Aβ peptides induced by the oligomerization procedure were estimated by CD spectroscopy, as previously described [66]. The HFIP-pretreated peptides were solubilized in deionized water as above, followed by further dilution to a final concentration of 50 μM in 10 mM phosphate buffer, pH 7.4, containing 150 mM sodium fluoride. Spectra in the far-ultraviolet (wavelength range: 190–260 nm; band-width 1 nm; intervals 1 nm; scan rate 60 nm/min) were recorded for each peptide immediately after solubilization and following 24-h incubation at 37 °C in a Jasco J-720 spectropolarimeter (Jasco Inc., Easton, MD) using a 1-mm-path quartz cell. For each sample, 15 consecutive spectra were obtained and averaged, the baseline reading was subtracted, and results were expressed in terms of molar ellipticity (deg × cm^2/dmol).

[4] = Autoradiography after SDS-polyacrylamide gel electrophoresis of [125I]-labeled Aβ preparations; assay type: physicochemical; conditions: [125I]-labeled 24-h incubated preparations, 16.5% SDS–polyacrylamide gel
Description: (§1) One hundred micrograms of either full-length or truncated Aβ species in both monomeric and oligomeric forms were radiolabeled using 1,3,4,6-tetrachloro-3α-6α-diphenylglycoluril pre-coated tubes (Iodogen, ThermoFisher Scientific/Pierce, Waltham, MA) and Na^125I (1 mCi, PerkinElmer, Waltham, MA), following the manufacturer’s specifications. All radiolabeling procedures were carried out for 20 min in a Standalone Radioiodine IH-350 hood (Atlantic Nuclear, Rockland, MA). Following removal of free Iodine using a desalting polyacrylamide column (D-salt, cut off 1.8 kDa, Pierce), radioactivity of labeled Aβ was assessed in a Perkin Elmer 1470 automated gamma counter (Perkin Elmer, Waltham, MA). Under these experimental conditions, [^125I] incorporation rendered specific activities in the range of 3–5 µCi/µg with > 98% TCA precipitable counts. Aggregation status of the [^125I]-labeled Aβ monomeric and oligomeric species was analyzed by autoradiography following 16.5% SDS–polyacrylamide gel electrophoresis and subsequent direct exposure to HyBlot CL film (Denville Scientific Inc., South Plainfield, NJ), as we previously described. If not immediately used for the clearance experiments, [^125I]Aβ oligomeric peptides were stored at -80 °C and used within a week to prevent further oligomerization and minimize radiolysis.

[5] = parameters: species or system C57BL/6 mice; conditions: mouse, in vivo
Description: as §1
C57BL/6 mice (Taconic Biosciences, Hudson, NY) were intracerebrally injected with the different Aβ preparations following institutionally approved IACUC protocols, essentially as previously reported by our laboratory. […] Radioactivity remaining in the whole brain was assessed in the Perkin Elmer 1470 γ-counter.

[6] = mouse, in vivo; cited from earlier work
From the text: In this sense, it is important to emphasize that the cerebral microvasculature, a main player in the regulation of Aβ homeostasis, suffers ...

Substance | Protofibrillar assemblies after the aggregation procedure, length (electron microscopy) [1] | Thioflavin T binding (fluorescence) of oligomerized peptides [2] | Secondary structure by CD upon oligomerization [3] | SDS-resistant oligomeric species of 24-h incubated preparations [4] | Brain clearance, percentage cleared relative to the total injected radioactivity, oligomeric (24-h incubated) preparation [5] | Percentage cleared from brain, oligomeric form [6]
Aβ1-34: Synthetic homologue of amyloid-β C-terminally truncated at Leu34 | did not form protofibrilar elements | negligible fluorescence signal | maintained the same unordered conformation before and after | did not oligomerize within the 24-h experimental timeframe | 86% ± 6% | 
Aβ1-40: Synthetic homologue of full-length amyloid-β 1-40 |  | low-to-intermediate thioflavin T binding activity | intermediate mixture of β-sheet and unordered structures | dimeric, trimeric and tetrameric assemblies |  | < 40%
Aβ1-42: Synthetic homologue of full-length amyloid-β 1-42 |  | highest thioflavin T binding | this type of secondary structure became more relevant | from tetramers to dodecamers | 61% ± 4% | 
Aβ4-40: Synthetic homologue of Aβ1-40 N-terminally truncated at Phe4 |  | low-to-intermediate thioflavin T binding activity; also recorded: higher thioflavin-binding activity than the full-length counterpart Aβ1-40 | predominant unstructured random conformations | from tetramers to dodecamers | 46% ± 5% | 
